Reference: patent publication US8829175B2, “Nucleic acids encoding polyvalent protein complexes” (IBC Pharmaceuticals, Inc., priority 2003, dated 2014)

How the values were obtained:
CEA = molecular target: T1, CEA (Homo sapiens, UniProt P06731); assay: SE-HPLC analysis of in vitro immunoreactivity with CEA; type: binding; settings: 125I-labeled protein; complexes bound to either one or two CEAs
T1 sequence (P06731 35-676): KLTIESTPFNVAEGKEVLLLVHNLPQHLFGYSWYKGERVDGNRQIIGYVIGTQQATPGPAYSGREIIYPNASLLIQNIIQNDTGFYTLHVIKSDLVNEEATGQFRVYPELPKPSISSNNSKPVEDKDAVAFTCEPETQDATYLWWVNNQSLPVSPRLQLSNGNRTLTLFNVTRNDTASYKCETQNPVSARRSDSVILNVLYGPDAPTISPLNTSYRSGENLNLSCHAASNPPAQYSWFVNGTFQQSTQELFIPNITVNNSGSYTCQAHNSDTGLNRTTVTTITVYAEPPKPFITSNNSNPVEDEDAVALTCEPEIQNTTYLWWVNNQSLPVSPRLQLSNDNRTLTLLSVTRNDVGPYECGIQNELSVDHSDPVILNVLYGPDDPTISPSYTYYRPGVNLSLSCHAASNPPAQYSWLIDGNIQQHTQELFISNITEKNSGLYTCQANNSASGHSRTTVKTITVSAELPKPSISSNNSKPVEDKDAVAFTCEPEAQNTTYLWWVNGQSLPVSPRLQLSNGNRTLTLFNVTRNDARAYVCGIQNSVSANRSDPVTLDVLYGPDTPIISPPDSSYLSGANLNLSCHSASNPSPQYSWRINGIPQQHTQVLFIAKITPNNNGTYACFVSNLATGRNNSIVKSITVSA
From the text: Confirmation that BS14HP has the ability to bind CEA bivalently was provided by SE-HPLC analysis of in vitro immunoreactivity. […] (FIG. 6B).

[1] = BIAcore binding to HSG immobilized on a sensorchip
From the text: If the W12 binding is allowed to approach saturation, the stoichiometry of the binding can be determined. The additional increase in RU resulting from W12 binding was compared to the initial RU increase of the hBS14 upon binding to the HSG-sensorchip. As each increase in RU level is directly proportional to the mass bound, the WI2:bsAb molar binding ratio can be calculated using the formula (RUWI2/RUhBS14)×(MWhBS14/MWWI2). hBS14 was designed to be bivalent for CEA (and monovalent for HSG) and as such should bind W12 (also bivalent) with a 1:1 molar ratio. […] When equal concentrations of hBS14 were bound to an HSG-sensorchip, BIAcore sensorgrams are indistinguishable between lots derived from either SP2/0 or YB2/0 cells (FIG. 17).

[2] = system: human colonic tumor (GW-39) xenograft; assay: Imaging of mice pre-targeted with hBS14 followed by 99mTc-IMP-245; type: in vivo, nude mice
Method: The experiment used 3 groups of 15 mice, each of which was necropsied, and 1 group of 5 mice that was imaged. Three groups of mice were administered 6 μCi ^125I-hBS14 (40 μg, 5.0×10^−10 moles). In the last group (imaging group), 3 mice received unlabeled hBS14. The amount of ^99mTc-IMP-245 administered to all the mice was ˜40 μCi (92 ng, 5.0×10^−11 moles) for a bispecific:peptide ratio of 10:1.
Animals 1 & 2 were given peptide only, while animals 3, 4, & 5 were administered hBS14 followed by peptide.

B1: hBS14: bispecific trivalent heterodimer (hMN-14×hMN-14×679) expressed in myeloma cells, SEQ ID NO:11 and 12 (antibody)
heavy: MEVQLVESGGDLVKPGGSLKLSCAASGFTFSIYTMSWLRQTPGKGLEWVATLSGDGDDIYYPDSVKGRFTISRDNAKNSLYLQMNSLRAEDTALYYCARVRLGDWDFDVWGQGTTVSVSSGGGGSDIQLTQSPSSLSASVGDRVTITCKASQDVGTSVAWYQQKPGKAPKLLIYWTSTRHTGVPSRFSGSGSGTDFTFTISSLQPEDIATYYCQQYSLYRSFGQGTKVEIKRLEGGGSEVQLVESGGGVVQPGRSLRLSCSASGFDFTTYWMSWVRQAPGKGLEWIGEIHPDSSTINYAPSLKDRFTISRDNAKNTLFLQMDSLRPEDTGVYFCASLYFGFPWFAYWGQGTPVTVSVDHHHHHH
light: MDIQLTQSPSSLSASVGDRVTITCKASQDVGTSVAWYQQKPGKAPKLLIYWTSTRHTGVPSRFSGSGSGTDFTFTISSLQPEDIATYYCQQYSLYRSFGQGTKVEIKRGGGQFMEVQLVESGGGVVQPGRSLRLSCSASGFDFTTYWMSWVRQAPGKGLEWIGEIHPDSSTINYAPSLKDRFTISRDNAKNTLFLQMDSLRPEDTGVYFCASLYFGFPWFAYWGQGTPVTVSGGGGSDIVMTQSPSSLAVSPGERVTLTCKSSQSLFNSRTRKNYLGWYQQKPGQSPKLLIYWASTRESGVPDRFSGSGSGTDFTLTINSLQAEDVAVYYCTQVYYLCTFGAGTKLELKRLDHHHHHH
- SE-HPLC peak shifts on mixing with increasing amounts of CEA (CEA): two distinct peak shifts
- binding to immobilized HSG [1]: bound tightly
- tumor visibility in images ([2]; 1 hr post-peptide administration, hBS14 48-hr clearance then 99mTc-IMP-245): clearly visible
- location of signal in images ([2]; 24 hrs post-peptide administration, imaged for 20 minutes): only signal detected was located in the tumors
